Target: FLAG-tagged human GABAC-ρ1 subunit V353D (human, UniProt P24046 22-479, V353D)
Experiment: co-IP

fold change of the ratio of immunoprecipitated calnexin/ρ1 against WT: 1.8 fold
B1: Calnexin (natural protein, human (endogenous in HEK293), UniProt P27824 21-592, looked up)
chain: HDGHDDDVIDIEDDLDDVIEEVEDSKPDTTAPPSSPKVTYKAPVPTGEVYFADSFDRGTLSGWILSKAKKDDTDDEIAKYDGKWEVEEMKESKLPGDKGLVLMSRAKHHAISAKLNKPFLFDTKPLIVQYEVNFQNGIECGGAYVKLLSKTPELNLDQFHDKTPYTIMFGPDKCGEDYKLHFIFRHKNPKTGIYEEKHAKRPDADLKTYFTDKKTHLYTLILNPDNSFEILVDQSVVNSGNLLNDMTPPVNPSREIEDPEDRKPEDWDERPKIPDPEAVKPDDWDEDAPAKIPDEEATKPEGWLDDEPEYVPDPDAEKPEDWDEDMDGEWEAPQIANPRCESAPGCGVWQRPVIDNPNYKGKWKPPMIDNPSYQGIWKPRKIPNPDFFEDLEPFRMTPFSAIGLELWSMTSDIFFDNFIICADRRIVDDWANDGWGLKKAADGAAEPGVVGQMIEAAEERPWLWVVYILTVALPVFLVILFCCSGKKQTSGMEYKKTDAPQPDVKEEEEEKEEEKDKGDEEEEGEEKLEEKQKSDAEEDGGTVSQEEEDRKPKAEEDEILNRSPRNRKPRRE

From article PMC3864119 (Journal of proteome research, 2013)
